Reference: the supplement of paper PMC11780869

Test system: Bacillus subtilis
Assay: cleaved RNA product abundance (RNA/gDNA barcode ratio) relative to median wild-type variant (ratio to wild type); higher = more accumulation of the downstream cleavage product
Details: cleavage site: cggR-gapA (positions -7 to +36 mutated)
Summary of the method: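 Cleaved product abundance was measured with barcoded reporter mRNAs (truncated aprE or tetM) carrying mutagenized RNase Y cleavage-site windows in the B. subtilis chromosome. Cultures in LB at 37°C grew from OD600 0.0003 to 0.3. Gel-selected cleaved RNA was reverse transcribed and barcode-sequenced with genomic DNA barcodes, and the RNA:gDNA barcode ratio per construct was scaled to the median construct bearing the unmutated site.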

[1] = experiment (reporter, strain, medium): exp 2b: truncated aprE reporter, strain BJT200
[2] = experiment (reporter, strain, medium): exp 4a: truncated aprE reporter, strain BJT201 with 2% xylose (RNase J1 expressed)

Sequence | cleaved RNA product abundance [1] | cleaved RNA product abundance [2] | cleaved RNA product abundance (experiment (reporter, strain, medium): exp 6: tetM reporter, strain 168)
ACAGACGAAGGAGCCGCAAAGATGTTATTAAGGGATGAATAATACCTCAATATAAATATCTCTCACTTATTTAAA | 0.128 | 0.142 | –
ACAGACGAAGGAGCCGCAAAGATGTTATTAAGGGATGAATAATCACTCAATATAAATATCTCTCACTTATTTAAA | – | 0.181 | –
ACAGACGAAGGAGCCGCAAAGATGTTATTAAGGGATGAATAATCCATCAATATAAATATCTCTCACTTATTTAAA | 0.171 | 0.311 | –
ACAGACGAAGGAGCCGCAAAGATGTTATTAAGGGATGAATAATCCCACAATATAAATATCTCTCACTTATTTAAA | 0.227 | 0.248 | –
ACAGACGAAGGAGCCGCAAAGATGTTATTAAGGGATGAATAATCCCTAAATATAAATATCTCTCACTTATTTAAA | – | 1.11 | –
ACAGACGAAGGAGCCGCAAAGATGTTATTAAGGGATGAATAATCCCTCAAAATAAATATCTCTCACTTATTTAAA | – | 0.502 | –
ACAGACGAAGGAGCCGCAAAGATGTTATTAAGGGATGAATAATCCCTCAACATAAATATCTCTCACTTATTTAAA | – | 0.223 | –
ACAGACGAAGGAGCCGCAAAGATGTTATTAAGGGATGAATAATCCCTCAATATAAATAACTCTCACTTATTTAAA | 0.767 | 0.897 | –
ACAGACGAAGGAGCCGCAAAGATGTTATTAAGGGATGAATAATCCCTCAATATAAATACCTCTCACTTATTTAAA | 0.71 | – | –
ACAGACGAAGGAGCCGCAAAGATGTTATTAAGGGATGAATAATCCCTCAATATAAATATCTCTCACTTATTTAAA | 0.938 | 0.996 | 1.01
ACAGACGAAGGAGCCGCAAAGATGTTATTAAGGGATGAATAATCCCTCAATATACATATCTCTCACTTATTTAAA | – | 0.483 | –
ACAGACGAAGGAGCCGCAAAGATGTTATTAAGGGATGAATAATCCCTCAATATATATATCTCTCACTTATTTAAA | – | 0.975 | –
ACAGACGAAGGAGCCGCAAAGATGTTATTAAGGGATGAATAATCCCTCAATCTAAATATCTCTCACTTATTTAAA | – | 0.0528 | –
ACAGACGAAGGAGCCGCAAAGATGTTATTAAGGGATGAATAATCCCTCACTATAAATATCTCTCACTTATTTAAA | 0.166 | – | –
ACAGACGAAGGAGCCGCAAAGATGTTATTAAGGGATGAATAATCCCTCATTATAAATATCTCTCACTTATTTAAA | – | 0.411 | –
ACAGACGAAGGAGCCGCAAAGATGTTATTAAGGGATGAATAATCCCTCGATATAAATATCTCTCACTTATTTAAA | 0.352 | – | –
ACAGACGAAGGAGCCGCAAAGATGTTATTAAGGGATGAATAATCCCTCTATATAAATATCTCTCACTTATTTAAA | – | 0.447 | –
ACAGACGAAGGAGCCGCAAAGATGTTATTAAGGGATGAATAATCCCTGAATATAAATATCTCTCACTTATTTAAA | – | 0.628 | –
ACAGACGAAGGAGCCGCAAAGATGTTATTAAGGGATGAATAATCCGTCAATATAAATATCTCTCACTTATTTAAA | 0.113 | 0.2 | –
ACAGACGAAGGAGCCGCAAAGATGTTATTAAGGGATGAATAATCCTTCAATATAAATATCTCTCACTTATTTAAA | 0.366 | 0.613 | –
ACAGACGAAGGAGCCGCAAAGATGTTATTAAGGGATGAATAATCTCTCAATATAAATATCTCTCACTTATTTAAA | – | 0.874 | –
ACAGACGAAGGAGCCGCAAAGATGTTATTAAGGGATGAATAATGCCTCAATATAAATATCTCTCACTTATTTAAA | – | 0.186 | –
ACAGACGAAGGAGCCGCAAAGATGTTATTAAGGGATGAATAATTCCTCAATATAAATATCTCTCACTTATTTAAA | – | 0.89 | –
ACAGACGAAGGAGCCGCAAAGATGTTATTAAGGGATGAATACTCCCTCAATATAAATATCTCTCACTTATTTAAA | 0.648 | – | –
ACAGACGAAGGAGCCGCAAAGATGTTATTAAGGGATGAATATTCCCTCAATATAAATATCTCTCACTTATTTAAA | 0.623 | 0.556 | –
ACAGACGAAGGAGCCGCAAAGATGTTATTAAGGGATGAATGATCCCTCAATATAAATATCTCTCACTTATTTAAA | – | 0.51 | –
ACAGACGAAGGAGCCGCAAAGATGTTATTAAGGGATGCATAATCCCTCAATATAAATATCTCTCACTTATTTAAA | 0.859 | 1.1 | –
ACAGACGAAGGAGCCGCAAAGATGTTATTAAGGGATTAATAATCCCTCAATATAAATATCTCTCACTTATTTAAA | – | 0.703 | –
ACAGACGAAGGAGCCGCAAAGATGTTATTAAGGGGTGAATAATCCCTCAATATAAATATCTCTCACTTATTTAAA | 0.656 | – | –
